Source: patent US20240245751A1

Target: Tat-PYC-Smad7 (recombinant Tat-tagged protein containing amino acids 203-426 of human Smad7) (human) (UniProt O15105)
Assay: sandwich ELISA: rabbit anti-Smad7 (Novus NBP1-87728) as capture, MAB2029 as detection, Tat-PYC-Smad7 spiked into dog serum, OD 450

Chain of UniProt O15105 (O15105 other isoform, or with tags, fused parts or gaps limits assumed): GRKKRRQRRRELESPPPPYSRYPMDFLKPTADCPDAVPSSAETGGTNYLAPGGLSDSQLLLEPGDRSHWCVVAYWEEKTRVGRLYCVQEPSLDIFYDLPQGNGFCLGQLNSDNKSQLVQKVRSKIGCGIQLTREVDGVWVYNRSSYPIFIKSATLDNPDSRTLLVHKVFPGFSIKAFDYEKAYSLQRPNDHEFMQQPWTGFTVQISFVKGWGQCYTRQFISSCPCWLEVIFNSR

Mouse monoclonal antibody (R&D #MAB2029) that recognized the c-terminus of human SMAD7
lowest concentration detected: 0.16 ng/mL
